The values below come from article PMC3605141, “NODULE INCEPTION Directly Targets NF-Y Subunit Genes to Regulate Essential Processes of Root Nodule Development in Lotus japonicus”.

In data set [1] the target is T1, NIN(520-878)-myc (C-ter) (Lotus japonicus) (UniProt Q9S7B1).
T1 sequence: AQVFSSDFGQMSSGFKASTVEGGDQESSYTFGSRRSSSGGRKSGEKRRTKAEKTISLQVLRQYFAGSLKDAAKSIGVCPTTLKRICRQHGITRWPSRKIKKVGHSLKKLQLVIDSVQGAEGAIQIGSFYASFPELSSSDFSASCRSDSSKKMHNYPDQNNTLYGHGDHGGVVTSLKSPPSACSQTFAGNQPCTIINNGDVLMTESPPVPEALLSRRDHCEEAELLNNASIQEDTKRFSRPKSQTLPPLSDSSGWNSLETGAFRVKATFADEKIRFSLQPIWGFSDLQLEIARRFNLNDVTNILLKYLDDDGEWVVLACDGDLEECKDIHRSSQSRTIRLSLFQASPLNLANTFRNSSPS
The experiment in a line: EMSA. The settings on record: 20 mM Hepes-KOH pH 7.9, 50 mM KCl, 1 mM MgCl2, 1 mM DTT, 4% glycerol, 0.1% Triton X-100, 2 ug BSA, 400 ng dIdC, 20 ul, 30 min at room temperature; 10-30 fmol ….

The target in data set [2] is T2, NIN-myc (Full) (Lotus japonicus) (UniProt Q9S7B1).
T2 sequence: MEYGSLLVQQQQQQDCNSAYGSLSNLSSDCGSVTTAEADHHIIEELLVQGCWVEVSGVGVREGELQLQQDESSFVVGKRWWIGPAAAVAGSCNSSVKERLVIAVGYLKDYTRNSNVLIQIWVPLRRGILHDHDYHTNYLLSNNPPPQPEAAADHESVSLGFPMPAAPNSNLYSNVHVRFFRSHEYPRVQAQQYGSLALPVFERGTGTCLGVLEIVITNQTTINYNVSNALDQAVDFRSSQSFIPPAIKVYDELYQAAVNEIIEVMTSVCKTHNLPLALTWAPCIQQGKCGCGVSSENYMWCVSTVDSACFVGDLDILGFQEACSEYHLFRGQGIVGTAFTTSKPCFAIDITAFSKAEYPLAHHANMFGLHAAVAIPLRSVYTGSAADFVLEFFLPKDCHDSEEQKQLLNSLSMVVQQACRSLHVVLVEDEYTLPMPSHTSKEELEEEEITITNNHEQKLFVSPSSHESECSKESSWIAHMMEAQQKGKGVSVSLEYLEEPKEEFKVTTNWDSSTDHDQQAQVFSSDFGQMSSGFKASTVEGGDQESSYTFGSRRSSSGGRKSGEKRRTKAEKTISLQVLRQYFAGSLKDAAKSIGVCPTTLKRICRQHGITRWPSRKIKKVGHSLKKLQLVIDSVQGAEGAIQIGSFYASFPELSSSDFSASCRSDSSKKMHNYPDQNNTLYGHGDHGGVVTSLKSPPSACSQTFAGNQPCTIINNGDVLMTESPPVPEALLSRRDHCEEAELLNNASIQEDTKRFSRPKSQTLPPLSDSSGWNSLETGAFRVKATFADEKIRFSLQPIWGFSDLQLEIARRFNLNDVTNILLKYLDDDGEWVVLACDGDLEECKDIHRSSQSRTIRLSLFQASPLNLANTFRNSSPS
Briefly: EMSA. The conditions noted are these: 20 mM Hepes-KOH pH 7.9, 50 mM KCl, 1 mM MgCl2, 1 mM DTT, 4% glycerol, 0.1% Triton X-100, 2 ug BSA, 400 ng dIdC, 20 ul, 30 min at room temperature; 10-30 fmol ….

For data set [3], the target named is NIN(520-878)-myc (C-ter) (Lotus japonicus, UniProt Q9S7B1 520-878). The experiment in a line: EMSA; 20 mM Hepes-KOH pH 7.9, 50 mM KCl, 1 mM MgCl2, 1 mM DTT, 4% glycerol, 0.1% Triton X-100, 2 ug BSA, 400 ng dIdC, 20 ul, 30 min at room temperature; 10-30 fmol 32P probe. The conditions noted are these: protein: ivt, tags: myc.

Regarding “AAAGAGTGAAGATGAATATGAAATATCCCTTGGAAAGCTCTAAAG (double strand) [LjNF-YB1 probe 13]”, in data set [1], the binding entry is reported as “no binding”.
On to “GAGAAAATGCTAGTTTTTAAAAAGAGAACCTTTATTTTTTTAAATATTGTATTTACGAAGAAAACTGAAAAAGAACAGATGATTTCAGTTAGATTGCTTGGCCCCCTTCTTATCTGGACAGGCATTTTCCTG (double strand) [LjNF-YA1 probe 9]”, for which the binding entry in data set [1] and in data set [2] was “binds” each time.
For the molecule “GGCCTTTGAGGCCGCTCAAAAGAGTGAAGATGAATATGAAAT (double strand) [LjNF-YB1 probe 12]”, the binding entry in data set [1] is recorded as “no binding”.
With “GTTAATGGATGCTGAGAAGGCCTTTGAGGCCGCTCAAAAGAGTGAAGATGAATATGAAATATCCCTTGGAAAGCTCTAAAG (double strand) [LjNF-YB1 probe 9]”, the binding result in data set [1] and in data set [2] was “binds” each time.
“TACAATTCTTTACTTTCAATACAAAAAACCCCATCAATTTACTTGTATCTTTAG (double strand) [LjNF-YB1 probe 15]”: in data set [1], the binding entry is reported as “no binding”.
Still for that read-out and setting: under “TCACTTTGGTGGATGTGGATATACAATTCTTTACTTTCAATACAAAAAACC (double strand) [LjNF-YB1 probe 16]” stands “no binding”.
Take “TCACTTTGGTGGATGTGGATATACAATTCTTTACTTTCAATACAAAAAACCCCATCAATTTACTTGTATCTTTAGAGCTTTCCAAGGGATATTTC (double strand) [LjNF-YB1 probe 10]”: the binding entry in data set [1] and in data set [2] was “binds” each time.
For “TCTTTTGAGCGGCCTCAAAGGCCTTCTCAGCATCCATTAAC (double strand) [LjNF-YB1 probe 11]”, the binding entry in data set [1] is recorded as “no binding”.

B1: probe 14 m5 (dsDNA)
DNA 1: AAACCCCATCAATTTACTTGTATCTTTAGAGCTTTCCAACCCTATTTTC
DNA 2: GAAAATAGGGTTGGAAAGCTCTAAAGATACAAGTAAATTGATGGGGTTT
On to B1, for which, in data set [3] (label: 32P), the binding result is recorded as “no binding”.

B2: NBS-yB1a m14 (dsDNA)
DNA 1: TACTTGTATCTTTAGAGCTTTCCAAGGGTATTTTC
DNA 2: GAAAATACCCTTGGAAAGCTCTAAAGATACAAGTA
On to B2, for which, in data set [3] (label: 32P), the binding result is “no binding”.

B3: probe 14 m3 (dsDNA)
DNA 1: AAACCCCATCAATTTACTTGTTAGAAAAGAGCTTTCCAAGGGATATTTC
DNA 2: GAAATATCCCTTGGAAAGCTCTTTTCTAACAAGTAAATTGATGGGGTTT
For the molecule B3, in data set [3] (label: 32P), the binding result was “no binding”.

B4: NBS-yB1a m8 (dsDNA)
DNA 1: TACTTGTATCAAAAGAGCTTTCCAAGGGATATTTC
DNA 2: GAAATATCCCTTGGAAAGCTCTTTTGATACAAGTA
On to B4, for which, in data set [3] (label: 32P), the binding result is “no binding”.

B5: NBS-yB1a m13 (dsDNA)
DNA 1: TACTTGTATCTTTAGAGCTTTCCAACCCATATTTC
DNA 2: GAAATATGGGTTGGAAAGCTCTAAAGATACAAGTA
In the case of B5, the binding result in data set [3] (label: 32P) was “no binding”.

B6: NBS-yB1a m12 (dsDNA)
DNA 1: TACTTGTATCTTTAGAGCTTTCGTTGGGATATTTC
DNA 2: GAAATATCCCAACGAAAGCTCTAAAGATACAAGTA
For the molecule B6, the binding result in data set [3] (label: 32P as probe) is given as “no binding”.
